According to patent US20190309074A1, “DEGLYCOSYLATED ANTIBODY SPECIFICALLY BINDING TO CLEC14A AND USES THEREOF” (WOORI TECHNOLOGIES CORPORATION, priority 2016, published 2019):

Tests used:
hclec14a-CTLD-Fc = molecular target: T1, hclec14a-CTLD-Fc (Homo sapiens, UniProt Q86T13); assay: ELISA binding specificity
T1 sequence (Q86T13 33-173 limits assumed): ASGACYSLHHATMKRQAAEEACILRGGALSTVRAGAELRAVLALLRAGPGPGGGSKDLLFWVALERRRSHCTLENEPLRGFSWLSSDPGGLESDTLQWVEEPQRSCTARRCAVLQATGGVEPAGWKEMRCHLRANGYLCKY
Text: (§1) Then, the scFv clones were converted into IgG, expressed in human embryonic kidney (HEK) 293 cells and then purified.

mclec14a-CTLD-Fc = molecular target: T2, mclec14a-CTLD-Fc (Mus musculus, UniProt Q8VCP9); assay: ELISA binding specificity
T2 construct: both human and mouse clec14a-CTLDs (hclec14a-CTLD and mclec14a-CTLD)
T2 sequence (Q8VCP9 33-173 limits assumed): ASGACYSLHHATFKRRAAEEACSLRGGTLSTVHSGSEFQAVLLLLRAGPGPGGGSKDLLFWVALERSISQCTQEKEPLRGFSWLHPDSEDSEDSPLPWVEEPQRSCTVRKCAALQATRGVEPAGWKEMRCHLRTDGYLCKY
Text: as §1

[1] = water-soluble antibody weighed after aggregates precipitated and removed by centrifugation; type: physicochemical
Text: For further comparison in stability between parent antibody IgG and clone 1 IgG, a water-soluble antibody was weighed after aggregates were precipitated and removed by centrifugation.

[2] = aggregation of purified antibody by visual observation and spectrophotometry; type: physicochemical; conditions: for aggregation by visual observation: purified antibody preparation
Text: In order to identify improved aggregation degree of clone 1 IgG, aggregation of purified parent antibody IgG and clone 1 IgG was compared by visual observation and then was confirmed by spectrophotometry.

HUVEC tube formation = HUVEC tube formation assay; type: cell-based, human; conditions: branches as % of MOCK
Procedure: Genetic mutation introduced during antibody engineering induces unpredicted defects, resulting in deterioration in antibody functions. In order to isolate antibodies for suppressing clec14a-mediated angiogenesis, tube formation and endothelial cell migration assay using human umbilical vein endothelial cells (HUVECs) were conducted in the presence or absence of clone 1 IgG and deglyco C1-C4 IgGs. Among the four types of deglyco IgGs, deglyco C1 IgG was selected as a candidate antibody. […] In addition, it can be seen that deglyco C1 IgG includes desired alterations (N32R/N33C/S34G) in the amino acid sequence in light chain CDR1.
In order to compare in vitro angiogenesis suppression effect between deglyco C1 IgG and bevacizumab, tube formation and migration assay were conducted in the presence or absence of parent antibody IgG, deglyco C1 IgG or bevacizumab as a positive control group.
In order to investigate in vitro effects of deglyco C1 IgG on VEGF-dependent angiogenesis, HUVECs were treated with VEGF in the presence or absence of deglyco C1 IgG, and then HUVEC tube formation assay was conducted. 150 μl of Matrigel was added to a 48-well plate and incubated at 37° C. for 30 minutes. HUVEC (10^5) cultured in EGM-2 were collected, seeded on the Matrigel-coated plate and incubated at 37° C. for 18 hours in the presence or absence of clone 1 IgG, parent antibody IgG, deglycosylated clec14a-CTLD IgG or bevacizumab. HUVECs cultured in VEGF-containing EBM (endothelial cell basal medium) were seeded to the Matrigel-coated plate and incubated at 37° C. for 18 hours in the presence or absence of deglyco C1 IgG (20 μg ml^−1).

B1: Clone 1 IgG: parent antibody CDRs grafted to the framework region of omalizumab (Xolair®) (antibody, V domains shown)
VH: EVQLVESGGGLVQPGGSLRLSCAVSGFTFSGYDMSWIRQAPGKGLEWVAGIYPDGGNTYYADSVKGRFTISRDDSKNTFYLQMNSLRAEDTAVYYCARGATWWVLGPFDYWGQGTLVTVSS
VL: DIQLTQSPSSLSASVGDRVTITCTGSSSNIGNNSVTWYQQKPGKAPKLLIYADSHRPSGVPSRFSGSGSGTDFTLTISSLQPEDFATYYCGAWDDSLSGYVFGQGTKVEIKR
binding to hclec14a-CTLD-Fc (hclec14a-CTLD-Fc): cross-reactivity to human and mouse CTLDs
binding to mclec14a-CTLD-Fc (mclec14a-CTLD-Fc): cross-reactivity to human and mouse CTLDs
antibody of the preparation aggregated [1]: no antibody aggregation was observed
aggregation by visual observation [2]: not visually observed
aggregation by visual observation ([2]; listed as the antibody substituted with the framework of omalizumab (Xolair®)): no aggregation
Aggregation index ([2]; spectrophotometry, 100×[Abs340/(Abs280−Abs340)]): ~1.5
inhibitory activity against HUVEC tube formation (HUVEC tube formation): inhibitory activity against tube formation, comparable to the parent antibody
